Reference: patent US7759459B2, “Fluorescent assays for protein kinases” (Albert Einstein College of Medicine of Yeshiva University, priority 2003, dated 2010)

Experiments:
[1] = test system: T1, N=C(N)NCCC[C@H](NC(=O)[C@H](CCCNC(=N)N)NC(=O)[C@H](CCCNC(=N)N)NC(=O)[C@H](CCCNC(=N)N)NC(=O)[C@H](Cc1ccccc1)NC(=O)[C@H](CO)Nc1ccc([N+](=O)[O-])c2nonc12)C(=O)N[C@@H](CCCCN)C(N)=O; assay: Radioactive PKC assay ([γ-32P]ATP); assay type: biochemical, human; details: other: PKCγ, 30.0 °C
T1 construct: purchased Panvera
Protocol: Radioactive PKC Assay—Radioactive assays were performed in duplicate at 30° C. The final assay volume totaled 40 μl and contained 62.5 mM HEPES (pH 7.4), 0.75 mM CaCl2, 12.5 mM MgCl2, 1 mM dithiothreitol, 0.5 mM EGTA, 7.5 μg/mL phosphatidylserine, 1.6 μg/mL diacylglycerol, and 10 ng of PKC. […] Phosphorylation reactions were initiated by the addition of 10 μL of PKC from a stock solution (20 mM Tris-HCl at pH 7.5, 1 mM dithiothreitol, 1 mM EDTA, and 0.75 mg/mL bovine serum albumin) into 30 μL of assay buffer containing peptide substrate. Reactions were terminated after 5 min by spotting 25 μL aliquots onto phosphocellulose paper disks (2.1 cm in diameter). After 10 s, the disks were immersed in 10% glacial acetic acid and soaked with occasional stirring for at least 1 h. The acetic acid was decanted and the disks were collectively washed with four volumes of 0.5% H3PO4, 1 volume of water, followed by a final acetone rinse. The disks were air dried and then counted in a Beckman LS scintillation counter.

[2] = test system: T1, N=C(N)NCCC[C@H](NC(=O)[C@H](CCCNC(=N)N)NC(=O)[C@H](CCCNC(=N)N)NC(=O)[C@H](CCCNC(=N)N)NC(=O)[C@H](Cc1ccccc1)NC(=O)[C@H](CO)Nc1ccc([N+](=O)[O-])c2nonc12)C(=O)N[C@@H](CCCCN)C(N)=O; assay: Fluorescent PKC assay (spectrofluorimetry); assay type: biochemical, human; details: other: PKCγ; Fluorescence; pH 7.4; 30.0 °C
Protocol: Fluorescent PKC assay-Fluorescence assays were performed in triplicate at 30° C. and initiated by addition of ATP to a 100 μL cuvette containing a 50 μL solution of PKC and peptide substrate 2. Final conditions: 62.5 mM HEPES pH 7.4, 3 mM MgCl2, 0.3 mM CaCl2, 0.1 mM EGTA, 1 mM DTT, 0.5 μg/mL phosphatidylserine, 0.1 μg/mL diacylglycerol, 1 mM ATP, and 13 nM PKC. After the addition of ATP, the solution was gently mixed and the time-dependent change in fluorescent intensity (excitation: 520 nm, emission: […]) continuously monitored with a Photon Technology QM-1 spectrofluorimeter.

In the case of PKCγ (Homo sapiens), the Km [1] is reported as 5.0 ± 1.0 µM, the kcat [1] is reported as 210 ± 20 min⁻¹ and the kcat/Km [1] is reported as 42 ± 9 min⁻¹ µM⁻¹. The Km [2] was 30 ± 5 µM, the kcat [2] was 3.17 ± 0.667 s⁻¹ and the kcat/Km [2] was 105000 ± 28300 M⁻¹ s⁻¹.
